The target of this assay is T1, HA-tagged PXL-1 full-length (residues 1-413) (C. elegans, UniProt Q09476 1-413).
T1 sequence (looked up): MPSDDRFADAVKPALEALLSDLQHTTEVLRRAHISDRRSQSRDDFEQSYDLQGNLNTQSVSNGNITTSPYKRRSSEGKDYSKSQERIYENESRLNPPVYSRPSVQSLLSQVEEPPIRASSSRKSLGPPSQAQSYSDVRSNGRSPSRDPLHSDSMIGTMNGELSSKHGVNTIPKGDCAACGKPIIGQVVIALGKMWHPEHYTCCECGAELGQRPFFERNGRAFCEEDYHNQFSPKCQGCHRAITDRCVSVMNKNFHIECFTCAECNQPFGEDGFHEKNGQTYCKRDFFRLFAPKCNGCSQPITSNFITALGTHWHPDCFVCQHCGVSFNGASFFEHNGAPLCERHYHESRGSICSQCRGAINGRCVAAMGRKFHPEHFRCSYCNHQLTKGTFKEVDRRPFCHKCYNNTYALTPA
The experiment in a line: pull-down.

These results are taken from paper PMC3135480 (Molecular Biology of the Cell, 2011).

B1: MBP fusion of UNC-95 full-length (natural protein, C. elegans, UniProt Q9NEZ5 1-350, looked up)
chain: MTISPQPSHQQFESYQWTTESRSSQQRHGTGTPSQDGRLSAIPDPVERHVARWRSESRNSNKDKVFRNDEEFSQQDEIVNGTLTALKNDVEQTTEIIRRKQEQMRMERRQFQTEMEVNGRISIDPTDDWLAARLKAVSSDDMNQQLVKLKQDQRQNAVTDTLAALVYDVNATTEVLRRGQRGRDGEDGNKKKKEEIEYTLRLTPAPEEQIPQRPKIPEDDNMETDDYSRQYGVQMSEETDSLRRRRARSTTPRRTLHISGSPPPPAAAVCAYCSEEIDGAILTALAPNSERAQKFHTYHFMCTYCQKALNMHGTYREHDLKPYCHDCFYKLYNGLQYAPDDHQASIEKLI
With B1, the binding result is “binds”.
